{
  "source": "patent US20030119735",
  "key": {"[1]": {"test_system": "T1, H-βAla-Arg-Arg-Met-Lys-Trp-Lys-Lys-NH2", "T1 sequence": "RRMKWKK"}, "[2]": {"test_system": "T2, 4′-Demethyl-4-[acetyl-(H-Cys-βAla-Arg-Arg-Met-Lys-Trp-Lys-Lys-NH2)]epipodophyllotoxin", "T2 sequence": "CRRMKWKK"}, "[3]": {"test_system": "T3, 4-[Succinimidopropionoyl-(H-Cys-βAla-Arg-Arg-Met-Lys-Trp-Lys-Lys-NH2)]epipodophyllotoxin", "T3 sequence": "CRRMKWKK"}, "[4]": {"test_system": "T4, 4′-Demethyl-4-[4″-aminoanilino-(succinimidopropionoyl)-(H-Cys-bAla-Arg-Arg-Met-Lys-Trp-Lys-Lys-NH2)]-epipodophyllotoxin", "T4 sequence": "CRRMKWKK"}, "[5]": {"test_system": "T5, 4-[Succinimidopropionoyl-(H-Cys-βAla-Arg-Arg-Met-Lys-Trp-Lys-Lys-NH2)]podophyllotoxin", "T5 sequence": "CRRMKWKK"}},
  "data": [
    {"substance": "purified recombinant human topoisomerase II", "values": [
      {"measurement": "Activity observed (topoisomerase II cleavage and relaxation assays on plasmid DNA)", "setting": "[1]", "value": "-"},
      {"measurement": "Activity observed (topoisomerase II cleavage and relaxation assays on plasmid DNA)", "setting": "[2]", "value": "IC"},
      {"measurement": "Activity observed (topoisomerase II cleavage and relaxation assays on plasmid DNA)", "setting": "[3]", "value": "IC"},
      {"measurement": "Activity observed (topoisomerase II cleavage and relaxation assays on plasmid DNA)", "setting": "[4]", "value": "I"},
      {"measurement": "Activity observed (topoisomerase II cleavage and relaxation assays on plasmid DNA)", "setting": "[5]", "value": "-"}
    ]}
  ]
}
